{"source": "patent US20040202655A1", "about": "(published 2004)", "key": {"[1]": {"target": "T1, human IGF-I receptor on cells (NIH-3T3 fibroblasts expressing the human IGF-IR; DU145 cells) (human, UniProt P08069 31-1367)", "assay": "cell-based or functional assay"}, "[2]": {"target": "T1, human IGF-I receptor on cells (NIH-3T3 …)", "assay": "cell-based or functional assay", "remark": "listed apart in the source"}, "[3]": {"target": "T1, human IGF-I receptor on cells (NIH-3T3 …)", "assay": "competition with 125I-IGF-I, NIH-3T3 cells expressing human IGF-1R, 4 C", "experimental": "(§1) NIH-3T3 fibroblasts expressing the human IGF-IR, or NIH-3T3 non-transfected fibroblasts were plated at 6×10⁴ cells per well in 0.5 ml of DMEM (Gibco, #11960-044) supplemented with 10% heat-inactivated fetal bovine serum (Gibco, #16140-071), 2 mM L-glutamine (Gibco, #25030-081) and 50 U/ml penicillin-streptomycin (Gibco, #15070-063). The NIH-3T3 cells were used as a control for non-specific cell binding. The plates were incubated at 37° C./5% CO₂ for 24 hours to allow cells to attach and become 80-90% confluent. The overlying media was then replaced with 0.5 ml per well of starvation media consisting of DMEM, 20 mM Hepes (Gibco, #15630-080), 2 mM L-glutamine and 0.1% bovine serum albumin (Equitech-Bio, protease-free, Kerrville, Tex.) and the plates were incubated at 37° C., 5% CO₂ overnight. All subsequent binding steps were conducted at 4° C. Test antibodies were diluted in ice-cold starvation media to the desired final concentration and 100 μl added per well. All samples were performed in duplicate. […] Cell monolayers were washed three times with ice-cold PBS (Gibco, #14040-117) and cells and associated radioactivity were released by adding 0.5ml 2% sodium dodecyl sulfate/0.2N NaOH to each well and heating the plates at 60° C. for 15 minutes. Lysate associated radioactivity was quantitated by gamma scintillation spectrometry. Alternatively, the same described experiment was performed with preincubation with the test antibodies at 37° C. for 10 minutes, followed by 10 minutes incubation at 37° C. after addition of 400 pM of the iodinated radioligand."}, "[4]": {"target": "T1, human IGF-I receptor on cells (NIH-3T3 …)", "assay": "competition with 125I-IGF-I, NIH-3T3 cells expressing human IGF-1R, 37 C", "experimental": "as §1, with “Alternatively, the same described experiment was performed with preincubation with the test antibodies at 37° C. for 10 minutes, followed by 10 minutes incubation at 37° C. after addition of 400 pM of the iodinated radioligand.” left out"}, "[5]": {"target": "T1, human IGF-I receptor on cells (NIH-3T3 …)", "assay": "competition with 125I-IGF-II, NIH-3T3 cells expressing human IGF-1R, 4 C", "experimental": "as §1"}, "[6]": {"target": "T1, human IGF-I receptor on cells (NIH-3T3 …)", "assay": "saturation binding of 125I-labelled IgG to NIH-3T3 cells expressing human IGF-1R, on ice; unit inferred", "experimental": "The mixtures were in incubated on ice for 70 min. After the incubation the tubes were centrifuged at 1000 rpm for 1 min and the supernatant fractions were removed by aspiration. The cell pellets were washed with 50 μl of ice-cold Hanks' Balanced Salt Solution containing 0.2% BSA and 20 mM Hepes and centrifuged at 1000 rpm for […] and the supernatant fractions were removed by aspiration. The resulting cell pellets were counted in Perkin Elmer Cobra Quantum gamma counter. […] The specific binding was obtained by subtracting the non-specific binding counts from the total binding counts in corresponding pairs."}, "[7]": {"target": "T1, human IGF-I receptor on cells (NIH-3T3 …)", "assay": "competition with 125I-IGF-II, NIH-3T3 cells expressing human IGF-1R, 37 C"}}, "note": "Several values for one entry are separate records, joined by “and”; a condition that tells them apart may be missing. Equal entries are not always repeated."}
{"binder": "PINT-11A4 IgG (antibody, V domains shown) VH: not shown VL: LSYELTQPPSVSVSPGQTATITCSGDDLGNKYVSWYQQKPGQSPVLVIYQDTKRPSGIPERFSGSNSGNIATLTISGTQAVDEADYYCQVWDTGTVVFGGGTKLTVLG", "values": [{"measurement": "Antagonist Assay IC50 (nM), IGF-I-induced IGF-1R tyrosine phosphorylation (ELISA)", "setting": "[1]", "result": "2.4 nM and 3.3 nM"}, {"measurement": "IC50 (nM), IGF-1 dependent proliferation of NIH-3T3/hIGF-1R cells (BrdU ELISA)", "setting": "[2]", "result": "3.4 nM and 2.6 nM"}, {"measurement": "IC50", "setting": "[3]", "result": "> 100", "unit": "nM"}, {"measurement": "IC50", "setting": "[4]", "result": 1.9, "unit": "nM"}, {"measurement": "IC50", "setting": "[5]", "result": "> 75", "unit": "nM"}, {"measurement": "Kd", "setting": "[6]", "result": 2.24, "unit": "nM"}, {"measurement": "IC50", "setting": "[7]", "result": "3 nM and 2.6 nM"}]}
